{
  "source": "patent US20140080161A1",
  "about": "“PHOSPHATASE COUPLED KINASE ASSAY” (RESEARCH AND DIAGNOSTIC SYSTEMS, INC., priority 2010, published 2014)",
  "molecules": {"B1": {"name": "rhCD39L2: recombinant human CD39L2, nucleotide phosphatase preferring ADP over ATP, used for coupling (protein, UniProt O75354 1-484, looked up)", "Ectonucleoside triphosphate …": "MKKGIRYETSRKTSYIFQQPQHGPWQTRMRKISNHGSLRVAKVAYPLGLCVGVFIYVAYIKWHRATATQAFFSITRAAPGARWGQQAHSPLGTAADGHEVFYGIMFDAGSTGTRVHVFQFTRPPRETPTLTHETFKALKPGLSAYADDVEKSAQGIRELLDVAKQDIPFDFWKATPLVLKATAGLRLLPGEKAQKLLQKVKKVFKASPFLVGDDCVSIMNGTDEGVSAWITINFLTGSLKTPGGSSVGMLDLGGGSTQIAFLPRVEGTLQASPPGYLTALRMFNRTYKLYSYSYLGLGLMSARLAILGGVEGQPAKDGKELVSPCLSPSFKGEWEHAEVTYRVSGQKAAASLHELCAARVSEVLQNRVHRTEEVKHVDFYAFSYYYDLAAGVGLIDAEKGGSLVVGDFEIAAKYVCRTLETQPQSSPFSCMDLTYVSLLLQEFGFPRSKVLKLTRKIDNVETSWALGAIFHYIDSLNRQKSPAS"}},
  "key": {"[1]": {"experiment": "ATP hydrolysis curve with increasing amounts of phosphatase, free phosphate by Malachite Green", "assay_type": "biochemical", "conditions": "0.25 μg phosphatase, 100 nmol of 2 mM ATP, 20 minutes", "excerpt": "The relative activity of the phosphatase on ADP and ATP can be measured by creating hydrolysis curves for ADP and ATP. For example, such hydrolysis curves may be created by performing a series of reactions separately combining set quantities of ADP or ATP with varying quantities of phosphatase and detecting the free phosphate produced. An example of such curves is described in Example 1 below. The resulting phosphate levels (or OD readings, which directly correspond to the phosphate levels) can be plotted against the amount of phosphatase used. The phosphate level or OD readings can be compared at the same quantity of the phosphatase to determine the relative activity of the phosphatase for ADP as compared to ATP. […]\nThe kinase reactions were carried out in 50 μL of kinase assay buffer including 25 mM Tris, 150 mM NaCl, 5 mM MgCl2, and 5 mM CaCl2 at pH 7.5 in a 96 well plate at room temperature. […] The color was developed with 30 μL Malachite Reagent B. The plate was read at 620 nm with a multi-well plate reader. […]\nIn this experiment, the relative activity of rhCD39L2 on ADP and ATP was determined. […] The reactions were stopped after 20 minutes and free phosphate was measured using the Malachite Green assay as described above.\nThe relative activity of recombinant mouse CD 39L2 (rmCD39L2) on ADP and ATP was determined in a series of reactions similar to Example 1. […]"}, "[2]": {"experiment": "ADP hydrolysis curve with increasing amounts of phosphatase, free phosphate by Malachite Green", "assay_type": "biochemical", "excerpt": "The relative activity of the phosphatase on ADP and ATP can be measured by creating hydrolysis curves for ADP and ATP. For example, such hydrolysis curves may be created by performing a series of reactions separately combining set quantities of ADP or ATP with varying quantities of phosphatase and detecting the free phosphate produced. An example of such curves is described in Example 1 below. The resulting phosphate levels (or OD readings, which directly correspond to the phosphate levels) can be plotted against the amount of phosphatase used. The phosphate level or OD readings can be compared at the same quantity of the phosphatase to determine the relative activity of the phosphatase for ADP as compared to ATP. […] The amount of phosphatase to be used for kinase reactions is preferably selected from within the rapidly rising portion of the ADP hydrolysis curve. In addition, the relative activity of the phosphatase for ADP versus ATP is preferably compared within this rapidly rising portion of the hydrolysis curve, at or near the steepest portion of the curve. At phosphatase levels below this range, the generated signals are weak, while at phosphatase levels above this range, the ADP hydrolysis approaches completion, which could underestimate the activity of the phosphatase on ADP due to exhaustion of the substrate.\nThe kinase reactions were carried out in 50 μL of kinase assay buffer including 25 mM Tris, 150 mM NaCl, 5 mM MgCl2, and 5 mM CaCl2 at pH 7.5 in a 96 well plate at room temperature. Each reaction was stopped with 30 μL of Malachite Reagent A and 100 μL of water. The color was developed with 30 μL Malachite Reagent B. The plate was read at 620 nm with a multi-well plate reader. If the predicted phosphate content in the reaction was above 4,000 pmol, the reaction was diluted before phosphate detection.\nIn this experiment, the relative activity of rhCD39L2 on ADP and ATP was determined. In a first series of reactions, 100 nmol of 2 mM ATP was combined with increasing amounts of rhCD39L2 (0.03125 μg, 0.0625 μg, 0.125 μg, 0.25 μg, 0.5 μg) for 20 minutes. Likewise in a second series of reactions, 100 nmol of 2 mM ADP was combined with the same increasing amounts of rhCD39L2 for 20 minutes. The reactions were stopped after 20 minutes and free phosphate was measured using the Malachite Green assay as described above.\nThe relative activity of recombinant mouse CD 39L2 (rmCD39L2) on ADP and ATP was determined in a series of reactions similar to Example 1. 100 nmol of 2 mM ATP was combined with increasing amounts of rmCD39L2 (0.03125 μg, […], 0.125 0.25 μg, 0.5 μg). Likewise in a second series of reactions, 100 nmol of 2 mM ADP was combined with the same increasing amounts of rmCD39L2. The reactions were stopped after 5 minutes and free phosphate was measured using the Malachite Green assay as described above.\nThe experiment of Example 1 was repeated using recombinant human CD39L4 (rhCD39L4). 100 nmol of ATP (2 mM) was combined with increasing amounts of rhCD39L4 (0.03125 μg, 0.0625 μg, 0.125 μg, 0.25 μg, 0.5 μg, 1.0 μg). Likewise in a second series of reactions, 100 nmol of ADP (2 mM) was combined with the same increasing amounts of rhCD39L4 for 5 minutes. The reactions were stopped after 5 minutes and free phosphate was measured using the Malachite Green assay as described above. […] As such, the necessary preference of the phosphatase for ADP as compared to ATP is present."}},
  "data": [
    {"molecule": "B1", "values": [
      {"measurement": "phosphate released from ATP", "setting": "[1]", "result": "less than 3 nmole"},
      {"measurement": "phosphate released from ADP", "setting": "[2]; 0.25 μg phosphatase, 100 nmol of 2 mM ADP, 20 minutes", "result": "about 80 nmol"},
      {"measurement": "fold more active on ADP", "setting": "[2]; Example 1, 20 minutes, allowing for two hydrolyzable phosphates of ATP", "result": "about 70 fold"},
      {"measurement": "fold more phosphate released from ADP than from ATP", "setting": "[2]; rising phases of the ADP hydrolysis curve, 20 minutes", "result": 35, "unit": "fold"}
    ]}
  ]
}
